{"source": "paper PMC4252739", "about": "(Cell host & microbe, 2014)", "proteins": {"B1": {"name": "MBP-MxB (full-length WT MxB tagged with maltose-binding protein) (natural protein, UniProt P20592 1-715, looked up)", "chain": "MSKAHKPWPYRRRSQFSSRKYLKKEMNSFQQQPPPFGTVPPQMMFPPNWQGAEKDAAFLAKDFNFLTLNNQPPPGNRSQPRAMGPENNLYSQYEQKVRPCIDLIDSLRALGVEQDLALPAIAVIGDQSSGKSSVLEALSGVALPRGSGIVTRCPLVLKLKKQPCEAWAGRISYRNTELELQDPGQVEKEIHKAQNVMAGNGRGISHELISLEITSPEVPDLTIIDLPGITRVAVDNQPRDIGLQIKALIKKYIQRQQTINLVVVPCNVDIATTEALSMAHEVDPEGDRTIGILTKPDLMDRGTEKSVMNVVRNLTYPLKKGYMIVKCRGQQEITNRLSLAEATKKEITFFQTHPYFRVLLEEGSATVPRLAERLTTELIMHIQKSLPLLEGQIRESHQKATEELRRCGADIPSQEADKMFFLIEKIKMFNQDIEKLVEGEEVVRENETRLYNKIREDFKNWVGILATNTQKVKNIIHEEVEKYEKQYRGKELLGFVNYKTFEIIVHQYIQQLVEPALSMLQKAMEIIQQAFINVAKKHFGEFFNLNQTVQSTIEDIKVKHTAKAENMIQLQFRMEQMVFCQDQIYSVVLKKVREEIFNPLGTPSQNMKLNSHFPSNESSVSSFTEIGIHLNAYFLETSKRLANQIPFIIQYFMLRENGDSLQKAMMQILQEKNRYSWLLQEQSETATKRRILKERIYRLTQARHALCQFSSKEIH"}}, "target": "the molecule itself", "assay": "cryo-EM imaging", "data": [{"protein": "B1", "values": [{"measurement": "binding result", "result": "binds"}]}]}
